According to the RNAGym collection of RNA variant scans (doi:10.7554/elife.80360):

B1: CPEB3 Ribozyme (parent)
chain: GGGGGCCACAGCAGAAGCGUUCACGUCGCGGCCCCUGUCAGAUUCUGGUGAAUCUGCGAAUUCUGCUGU

Variants of: B1
Assay: self-cleavage, relative activity (ratio to wild type); higher = more cleavage; co-transcriptional

Point of comparison: G31C U43G, self-cleavage 0.276. Against it:
- C32A A59C — higher, 0.372
- C32A A59G — higher, 0.61
- G31C U67G — higher, 0.355
- G31C U67A — higher, 0.277
- C32A A51G — higher, 0.521
- C32A G68A — higher, 0.994
- G31U A42C — higher, 0.458
- G31U A42G — higher, 0.692
- G31C U61A — lower, 0.179
- G31C U61C — lower, 0.188
- G31C U61G — lower, 0.158
- C32A C35A — lower, 0.26
- C32A — higher, 0.866
- G31C U53A — lower, 0.208
- G31U C34A — lower, 0.232
- G31U C34G — lower, 0.237
- G31U A51G — higher, 0.636
- C32A G50C — higher, 0.716
- C32A G50A — higher, 0.693
- G31C U44G — lower, 0.242
- G31C U44A — lower, 0.257
- G31U U43G — higher, 0.454
- G31U U43C — higher, 0.393
- G31U U43A — higher, 0.443
- C32A C45G — higher, 0.667
- G31U C66U — higher, 0.732
- G31U C66A — higher, 0.489
- G31U C66G — higher, 0.415
- G31C U55A — lower, 0.188
- G31C U55C — lower, 0.225
- G31C U64C — lower, 0.273
- G31C U64A — lower, 0.111
- G31U C39G — higher, 0.437
- G31U C39U — higher, 0.357
- G31U C39A — higher, 0.319
- G31C U69G — higher, 0.444
- C32A A60C — lower, 0.27
- C32A A60U — lower, 0.257
- C32A C39U — higher, 0.388
- C32A C39A — higher, 0.434
- C32A A52U — higher, 0.645
- C32A A52C — higher, 0.374
- G31C G41A — lower, 0.201
- G31C G41C — lower, 0.173
- G31U U64C — higher, 0.427
- G31U U64A — higher, 0.446
- G31C U43C — higher, 0.289
- G31U U67A — higher, 0.89
- G31U U67G — higher, 0.919
- G31U U61G — higher, 0.351
- G31U U61A — higher, 0.289
- G31U U36A — lower, 0.189
- G31U U36G — higher, 0.738
- C32A C34A — lower, 0.229
- C32A C34U — higher, 0.362
- G31U C54G — higher, 0.33
- G31U C54U — higher, 0.729
- G31C G48A — lower, 0.24
- G31C G48U — lower, 0.247
- G31C G48C — lower, 0.222
- C32A G56A — higher, 0.674
- C32A G56U — higher, 0.683
- G31U U46A — higher, 0.785
- G31U U46C — higher, 0.725
- G31U U46G — higher, 0.638
- G31U A52U — higher, 0.655
- G31U A52G — higher, 0.775
- G31C G68U — higher, 0.392
- G31C G68C — higher, 0.414
- G31U C32U — higher, 0.32
- G31U C32G — lower, 0.177
- C32A C33U — lower, 0.231
- C32A C33A — higher, 0.308
- G31U G37U — lower, 0.163
- G31U G37C — lower, 0.189
- G31U U62C — lower, 0.226
- G31U U62G — lower, 0.274
- C32A C63G — higher, 0.344
- C32A C63U — higher, 0.772
- C32A C66A — higher, 0.698
- C32A C66U — higher, 0.903
- G31U G56A — higher, 0.386
- G31U G56U — higher, 0.568
- G31C U36G — higher, 0.475
- G31C U36C — lower, 0.203
- G31C U36A — lower, 0.155
- G31U U55C — higher, 0.459
- G31U U55G — lower, 0.274
- G31U C45A — higher, 0.662
- G31U C45G — higher, 0.559
- G31C G47A — lower, 0.249
- G31C G47U — lower, 0.239
- G31C G47C — lower, 0.271
- C32A G37C — higher, 0.336
- G31C G50U — lower, 0.238
- G31C G50C — lower, 0.245
- G31U U49C — higher, 0.731
- G31U U49A — higher, 0.71
- C32A G58C — higher, 0.841
- C32A G58A — higher, 0.693
- G31C G58A — lower, 0.21
- G31C U62G — lower, 0.228
- C32A C54U — higher, 0.803
- C32A C54A — higher, 0.328
- C32A C54G — higher, 0.333
- G31U A60G — higher, 0.277
- G31U A60U — lower, 0.229
- G31U G65U — higher, 0.352
- G31U G65C — higher, 0.358
- G31U U38G — lower, 0.124
- G31U U38C — higher, 0.505
- G31U U38A — higher, 0.537
- G31C U46G — lower, 0.205
- G31C U46C — lower, 0.164
- G31C U46A — lower, 0.263
- G31U G58C — higher, 0.611
- G31C U38G — lower, 0.191
- G31C U38C — lower, 0.191
- G31C U49G — lower, 0.175
- G31C U49C — lower, 0.178
- G31C U49A — higher, 0.286
- C32A C57G — lower, 0.27
- C32A C57U — lower, 0.25
- C32A G48C — higher, 0.862
- C32A G48U — higher, 0.901
- C32A G48A — higher, 0.875
- G31U A40C — lower, 0.254
- G31U A40G — higher, 0.457
- G31U U53A — higher, 0.545
- G31U U53G — higher, 0.411
- G31U C63U — higher, 0.602
- C32A G41U — higher, 0.362
- C32A G41A — higher, 0.344
- G31U U44C — higher, 0.618
- G31C G56U — lower, 0.164
- G31C G56A — lower, 0.2
- G31C G56C — lower, 0.139
- G31U — higher, 0.782
- C32A G65A — higher, 0.638
- G31U G48C — higher, 0.812
- G31U G48U — higher, 0.797
- G31U G48A — higher, 0.756
- G31U U69C — higher, 1.02
- G31U U69A — higher, 0.876
- C32A A40G — higher, 0.711
- C32A A40U — higher, 0.376
- C32A A40C — higher, 0.321
- G31U G47U — higher, 0.795
- G31U G47C — higher, 0.684
- G31U G47A — higher, 0.787
- C32A A42U — higher, 0.504
- C32A A42C — higher, 0.342
- G31U C57U — lower, 0.229
- G31U C57A — lower, 0.208
- G31U G41U — higher, 0.398
- G31U C35G — lower, 0.252
- C32A G47A — higher, 0.877
- C32A G47C — higher, 0.869
- G31U G50U — higher, 0.754
- G31U G50C — higher, 0.742
- G31U C33U — higher, 0.4
- G31U C33G — lower, 0.2
- G31C G65U — lower, 0.136
- G31C G65A — lower, 0.147
- G31U G68A — higher, 0.957
- G31U A59U — higher, 0.334
